Measured values: patent US12077599 (SEOUL NATIONAL UNIVERSITY R AND DB FOUNDATION NATIONAL …, dated 2024)

Key:
[1] = target: T1, GRP75 (Enzo Life Sciences) (UniProt P38646 47-679, limits assumed); assay: phage ELISA
T1 construct: Purchased protein coated in ELISA
Procedure: Each codon in the bracket in the forward primer sequence of the second fragment was replaced with NNK. Subsequently, these PCR fragments were purified and subjected to overlap extension PCR. The overlap extension PCR was performed using 100 ng PCR fragments each by after preparatory modification of DNA at 95° C. for 5 minutes, 30 cycles of DNA modification at 95° C. for 30 seconds, combination of primers at 56° C. for 30 seconds, and elongation at 72° C. for 30 seconds, and then it was terminated after incubation for 5 minutes. The obtained overlap extension PCR products were purified and subcloned into a pComb3XSS phagemid vector using Sfi I restriction enzyme and transformed into *Escherichia coli* [See C. F. Barbas, Phage Display: a Laboratory Manual, Cold Spring Harbor Laboratory Press, Cold Spring Harbor, N Y, 2001]. From the output titer plate, phages were rescued from randomly selected colonies and subjected to ELISA [See C. F. Barbas, Phage Display: a Laboratory Manual, Cold Spring Harbor Laboratory Press, Cold Spring Harbor, N Y, 2001].
Example 3. Screening of Modified scFv with Enhanced Specificity from the HCDR3 Site-Directed Mutagenesis Library Based on the result of Example 2, to generate monoclonal antibody clones nonreactive to Hsp70 but reactive to ROS1, HCDR3 site-directed mutagenesis libraries were constructed. […]

[2] = target: T1, GRP75 (Enzo Life Sciences); assay: ELISA, GRP75 coated, detection with HRP anti-rabbit IgG
Procedure: Microtiter plates (Costar, Cambridge, MA, USA) were coated with 100 ng of a recombinant ROS1 (37-290 amino acids)-Cκ fusion protein, an irrelevant protein (recombinant PSA (prostate cancer specific antigen; NP_001025218.1))-Cκ fusion protein the synthetic peptide ([…]-[…])-BSA conjugate or GRP75 (Enzo Life Sciences, Farmingdale, NY, USA) dissolved in coating buffer (0.1 M sodium bicarbonate, pH 8.6). After blocking, 3B20-rFc or 3B20-G1K (the first amino acid G of HCDR3 of 3B20 was substituted to K)-rFc fusion proteins were added. The amounts of bound antibodies were determined using a horseradish peroxidase (HRP)-conjugated goat anti-rabbit IgG antibody (Abcam, Cambridge Science Park, Cambridge, UK) and 2,20-azinobis [3-ethylbenzothiazoline-6-sulfonic acid]-diammonium salt (ABTS) substrate solution (Amresco LLC, Solon, OH, USA). All experiments were performed in triplicate.
To test the specificity of 3B20-GlK, a recombinant 3B20-G1K scFv-Cκ fusion protein was prepared. Then ELISA, immunoblot, and immunoprecipitation analyses were performed in parallel with 3B20 for the prepared fusion protein. […] After blocking, the 3B20-rFc fusion protein or 3B20-G1K-rFc fusion protein was added to the well in a concentration of 0 to 2000 ng/ml, and the amount of the fusion protein combined to the well was measured by ELISA using the HRP-conjugated anti-rabbit IgG antibody and ABTS solution. […]

T1 sequence (P38646 47-679 limits assumed): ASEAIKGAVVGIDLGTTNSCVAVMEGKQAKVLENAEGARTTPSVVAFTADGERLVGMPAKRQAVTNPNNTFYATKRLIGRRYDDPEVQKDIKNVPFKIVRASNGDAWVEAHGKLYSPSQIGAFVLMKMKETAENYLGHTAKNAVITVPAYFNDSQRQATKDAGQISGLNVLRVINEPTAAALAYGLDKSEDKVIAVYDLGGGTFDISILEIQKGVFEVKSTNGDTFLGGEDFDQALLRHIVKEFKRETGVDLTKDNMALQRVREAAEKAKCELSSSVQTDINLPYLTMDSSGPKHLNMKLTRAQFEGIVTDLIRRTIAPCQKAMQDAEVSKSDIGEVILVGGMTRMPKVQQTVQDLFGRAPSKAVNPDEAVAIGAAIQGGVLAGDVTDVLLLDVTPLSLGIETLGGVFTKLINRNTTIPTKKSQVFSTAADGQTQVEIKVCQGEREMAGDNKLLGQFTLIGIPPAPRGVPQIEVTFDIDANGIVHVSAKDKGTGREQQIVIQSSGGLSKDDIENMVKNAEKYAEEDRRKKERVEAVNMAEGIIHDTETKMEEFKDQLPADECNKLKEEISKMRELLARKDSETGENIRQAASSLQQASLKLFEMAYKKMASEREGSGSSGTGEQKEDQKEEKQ

B1: 3B20-G1K scFv (phage-displayed clone) (scFv)
scFv: LTQPSSVSANLGGTVKITCSGGSYGYGWYQQKAPGSAPATVIYDNTNRPSDIPSRFSGSKSGSTGTLTITGVQVEDEAVYYCGSADSSSIATFGAGTTLTVLGQSSRSSGGGGSSGGGGSAVTLDESGGGLQTPGGTLSLVCKASGFSFSDRGMHWMRQAPGKGLEYVGAISGDGYITHYGAAVKGRATISRDNGQSTVRLQLNNLRAEDTATYYCTRKGGGNIDAWGHGTEVIVSSTS
notes: Clone from the HCDR3 first-residue NNK library in pComb3XSS, tested as phage in ELISA; also called 3B20-GIK
- binding result [1]: no binding

B2: 3B20-G1K scFv-rFc fusion protein (Fc fusion)
scFv: B1 scFv
notes: also called 3B20-G1K-rFc; 3B20(scFv)-G1K-rFc fusion protein; not shown: rabbit antibody Fc (rFc)
- binding result [2]: no binding (tested: 2 µg/mL)
